In article PMC3572051, “The Budding Yeast Cdc48^Shp1 Complex Promotes Cell Cycle Progression by Positive Regulation of Protein Phosphatase 1 (Glc7)” (PLoS ONE, 2013):

Molecular target: T1, Shp1^3HA (S. cerevisiae, UniProt P34223 1-423)
T1 construct: Shp1 (Ubx1), S. cerevisiae; source: S. cerevisiae DF5, chromosomal fusion SHP1^3HA::klTRP1, endogenous expression level, in lysate
T1 sequence (looked up): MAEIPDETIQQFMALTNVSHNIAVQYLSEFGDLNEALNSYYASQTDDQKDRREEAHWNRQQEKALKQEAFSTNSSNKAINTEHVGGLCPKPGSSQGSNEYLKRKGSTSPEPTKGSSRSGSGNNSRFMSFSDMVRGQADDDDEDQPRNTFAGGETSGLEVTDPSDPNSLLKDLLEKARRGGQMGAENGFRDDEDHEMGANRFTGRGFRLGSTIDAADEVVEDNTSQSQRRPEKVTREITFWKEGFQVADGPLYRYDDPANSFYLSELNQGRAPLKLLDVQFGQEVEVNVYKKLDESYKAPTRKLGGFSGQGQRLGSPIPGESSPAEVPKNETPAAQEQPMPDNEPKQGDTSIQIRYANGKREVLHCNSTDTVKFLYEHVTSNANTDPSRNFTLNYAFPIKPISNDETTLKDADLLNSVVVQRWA
Assay: co-IP; yeast lysates; immunoprecipitation with pre-coupled anti-HA antibody (overnight, 4°C), IP buffer 50 mM Tris/HCl pH 7.5, 100 mM KCl, 5 mM MgCl2, NP-40, 10% glycerol; Western blot; for Glc8^3HA lysates of asynchronous or α-factor-arrested wild-type and shp1-7 cells
Settings: partners not purified

B1: Glc7^3myc (enzyme, S. cerevisiae, UniProt P32598 1-312, looked up)
chain: MDSQPVDVDNIIDRLLEVRGSKPGQQVDLEENEIRYLCSKARSIFIKQPILLELEAPIKICGDIHGQYYDLLRLFEYGGFPPESNYLFLGDYVDRGKQSLETICLLLAYKIKYPENFFILRGNHECASINRIYGFYDECKRRYNIKLWKTFTDCFNCLPIAAIIDEKIFCMHGGLSPDLNSMEQIRRVMRPTDIPDVGLLCDLLWSDPDKDIVGWSENDRGVSFTFGPDVVNRFLQKQDMELICRAHQVVEDGYEFFSKRQLVTLFSAPNYCGEFDNAGAMMSVDESLLCSFQILKPAQKSLPRQAGGRKKK
notes: Glc7, catalytic subunit of protein phosphatase 1, S. cerevisiae; carboxyl-terminally tagged at its authentic chromosomal locus; also called PP1 catalytic subunit; source: S. cerevisiae DF5, expressed from the chromosomal GLC7 locus as sole source of Glc7, in lysate; not shown: 3myc, C-terminal, kept
  fold difference of the Glc7 signal in the IP lane (relative to the heavy chain signal) against the negative control: > 8 fold
